B1: High mobility group protein B1 (Mus musculus), P63158 (parent)
chain: MGKGDPKKPRGKMSSYAFFVQTCREEHKKKHPDASVNFSEFSKKCSERWKTMSAKEKGKFEDMAKADKARYEREMKTYIPPKGETKKKFKDPNAPKRPPSAFFLFCSEYRPKIKGEHPGLSIGDVAKKLGEMWNNTAADDKQPYEKKAAKLKEKYEKDIAAYRAKGKPDAAKKGVVKAEKSKKKKEEEDDEEDEEDEEEEEEEEDEDEEEDDDDE

Variants of: B1
Conditions: with havr2_mouse Havcr2, Q8VIM0
havr2_mouse Havcr2, Q8VIM0, sequence (Q8VIM0 whole entry): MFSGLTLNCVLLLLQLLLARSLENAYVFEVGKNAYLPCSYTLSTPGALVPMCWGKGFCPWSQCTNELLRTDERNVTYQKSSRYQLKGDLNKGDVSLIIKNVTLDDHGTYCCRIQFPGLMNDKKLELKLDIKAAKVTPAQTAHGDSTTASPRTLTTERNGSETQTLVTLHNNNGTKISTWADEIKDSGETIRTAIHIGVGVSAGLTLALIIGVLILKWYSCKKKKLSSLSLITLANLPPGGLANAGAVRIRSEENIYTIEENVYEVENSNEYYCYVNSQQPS

| effect of a mutation on the interaction | Variant |
| --- | --- |
| decreasing interaction | MGKGDPKKPRGKMSSYAFFVQTCREEHKKKHPDASVNFSEFSKKCSERWKTMSAKEKGKFEAMAKADKARYEREMKTYIPPKGETKKKFKDPNAPKRPPSAFFLFCSEYRPKIKGEHPGLSIGDVAKKLGEMWNNTAADDKQPYEKKAAKLKEKYEKDIAAYRAKGKPDAAKKGVVKAEKSKKKKEEEDDEEDEEDEEEEEEEEDEDEEEDDDDE [D62A] |

Reference: IntAct's records for PubMed 22842346
